This assay has as its target SARS-CoV-2 S receptor-binding domain (RBD), biotinylated (SARS-CoV-2, UniProt P0DTC2, biotin on the Avi tag (enzymatic, BirA)). Nature of the assay: cell-based or functional assay.

B1: FD20 (IgG format) (antibody, V domains shown)
VH: QVQLQQSGAEVKKPGSSVKVSCKASGGTFSSYAFSWVRQAPGQGLEWMGRIIPILGIANYAQKFQGRVTITADISTSTAYMALSSLRSEDTAVYYCAKVEVNIGMDDYYYYYGMDVWGQGTTVTVSS
VL: not shown
In the case of B1, the “neutralisation of SARS-CoV-2 pp harbouring wild-type S, IC50 (fold in brackets)” value is 12 nM.

(Values after PMC8646660 (EMBO Molecular Medicine, 2021).)
